{
  "source": "patent US20030120051A1",
  "about": "(SUGEN, published 2003)",
  "target": "T1, rat CASPR/p190 (rat, UniProt P97846 21-1381)",
  "T1 construct": "Endogenous in GH3 cells and rat brain, or expressed from pCM190R in COS7 cells; read from membrane lysates; no cleavage site stated; also called Contactin ASsociated PRotein; 190 kDa protein",
  "T1 sequence": "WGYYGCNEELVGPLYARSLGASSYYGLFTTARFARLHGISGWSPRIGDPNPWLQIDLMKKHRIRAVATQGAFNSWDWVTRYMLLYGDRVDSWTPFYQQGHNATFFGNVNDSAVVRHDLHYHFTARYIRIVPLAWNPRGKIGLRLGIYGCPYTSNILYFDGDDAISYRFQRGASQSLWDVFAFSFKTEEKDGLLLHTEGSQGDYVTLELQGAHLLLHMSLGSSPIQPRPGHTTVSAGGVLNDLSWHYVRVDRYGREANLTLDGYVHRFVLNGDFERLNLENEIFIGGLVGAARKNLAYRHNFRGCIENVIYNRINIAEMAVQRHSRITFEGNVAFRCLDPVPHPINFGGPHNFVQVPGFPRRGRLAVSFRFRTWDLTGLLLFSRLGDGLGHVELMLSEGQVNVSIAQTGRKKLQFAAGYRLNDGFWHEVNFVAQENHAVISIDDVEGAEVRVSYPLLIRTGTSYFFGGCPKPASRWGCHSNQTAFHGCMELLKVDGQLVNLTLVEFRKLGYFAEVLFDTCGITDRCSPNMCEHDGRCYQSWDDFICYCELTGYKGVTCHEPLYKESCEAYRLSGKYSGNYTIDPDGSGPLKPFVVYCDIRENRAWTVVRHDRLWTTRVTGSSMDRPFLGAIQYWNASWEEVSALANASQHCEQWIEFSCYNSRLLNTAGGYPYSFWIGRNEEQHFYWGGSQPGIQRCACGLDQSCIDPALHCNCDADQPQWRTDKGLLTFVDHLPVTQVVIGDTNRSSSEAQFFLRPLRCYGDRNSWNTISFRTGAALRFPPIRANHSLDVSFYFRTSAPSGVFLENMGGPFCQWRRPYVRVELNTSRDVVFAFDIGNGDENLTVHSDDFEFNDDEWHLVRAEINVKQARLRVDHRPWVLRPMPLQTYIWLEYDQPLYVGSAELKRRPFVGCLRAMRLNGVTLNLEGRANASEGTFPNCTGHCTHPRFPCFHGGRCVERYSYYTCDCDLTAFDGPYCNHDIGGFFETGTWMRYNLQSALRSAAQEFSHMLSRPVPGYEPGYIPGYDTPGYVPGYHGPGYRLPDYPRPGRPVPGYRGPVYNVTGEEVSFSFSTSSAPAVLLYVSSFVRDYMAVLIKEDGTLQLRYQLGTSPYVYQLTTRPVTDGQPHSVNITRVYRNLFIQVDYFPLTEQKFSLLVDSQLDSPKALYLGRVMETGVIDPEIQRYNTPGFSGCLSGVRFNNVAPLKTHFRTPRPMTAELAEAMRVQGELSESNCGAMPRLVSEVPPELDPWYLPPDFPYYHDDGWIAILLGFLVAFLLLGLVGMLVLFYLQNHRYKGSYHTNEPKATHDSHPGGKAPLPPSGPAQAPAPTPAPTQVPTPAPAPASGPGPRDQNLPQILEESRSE",
  "assay": "bioaffinity precipitation from membrane extracts of labeled GH3 cells",
  "data": [
    {"binder": "βF-Fc (FNIII domain of RPTPβ fused to human IgG1-Fc) (Fc fusion, domain: FNIII; also called the FNIII domain alone; fibronectin domain alone; not shown: human IgG1 Fc (vector pCNγ1)) not shown", "values": [
      {"measurement": "binding result", "value": "no binding"}
    ]}
  ]
}
